What was measured:
[1] = biological target: PCAT1(C21A) (Clostridium thermocellum) (UniProt A3DCU1); test: native MS; in 200 mM ammonium acetate pH 7.5 with 0.5% C8E4 (2X CMC); 4 µM PCAT1 monomer alone, or 4 µM PCAT1(C21A) monomer + 8 µM CtA (two-fold excess of CtA); abundances corrected for gas-phase dissociation
[2] = biological target: PCAT1(C21A) (Clostridium thermocellum) (UniProt A3DCU1); test: native MS; in 200 mM ammonium acetate pH 7.5 with 0.058% UDM (2X CMC); 4 µM PCAT1 monomer alone, or 4 µM PCAT1(C21A) monomer + 8 µM CtA (two-fold excess of CtA); abundances corrected for gas-phase dissociation
[3] = biological target: wt PCAT1 (Clostridium thermocellum) (UniProt A3DCU1); test: native MS; in 200 mM ammonium acetate pH 7.5 with 0.5% C8E4 (2X CMC); 4 µM PCAT1 monomer alone, or 4 µM PCAT1(C21A) monomer + 8 µM CtA (two-fold excess of CtA); abundances corrected for gas-phase dissociation
[4] = biological target: wt PCAT1 (Clostridium thermocellum) (UniProt A3DCU1); test: native MS; in 200 mM ammonium acetate pH 7.5 with 0.058% UDM (2X CMC); 4 µM PCAT1 monomer alone, or 4 µM PCAT1(C21A) monomer + 8 µM CtA (two-fold excess of CtA); abundances corrected for gas-phase dissociation
[5] = biological target: PCAT1(C21A) (Clostridium thermocellum) (UniProt A3DCU1); test: cryo-EM structure; PCAT1(C21A) (5 mg/ml, 62 µM monomer) mixed with 62 µM refolded CtA, 30 min on ice, in UDM, no ATP

Substance: PCAT1(C21A) (from UniProt A3DCU1 1-727) (natural protein)
- stoichiometry N [1]: 2
- stoichiometry N [2]: 2

Substance: wt PCAT1 (from UniProt A3DCU1 1-727) (natural protein)
- stoichiometry N [3]: 2
- stoichiometry N [4]: 2

Substance: CtA (natural protein)
- % abundance of the C21A-PCAT1 dimer + 1 CtA complex [1]: 16%
- % abundance of the C21A-PCAT1 dimer + 2 CtA complex [1]: 84%
- stoichiometry N (CtA per PCAT1 dimer) [1]: 2
- stoichiometry N (CtA per PCAT1 transporter) [5]: 2
- % abundance of the C21A-PCAT1 dimer + 1 CtA complex [2]: 25%
- % abundance of the C21A-PCAT1 dimer + 2 CtA complex [2]: 75%
- stoichiometry N (CtA per PCAT1 dimer) [2]: 2
